Source: publication PMC5444859

Assays:
[1] = target: CASV L-Cterm domain 2 (California Academy of Sciences virus …, UniProt J7HBG8 1794-1894); assay: EMSA; 5 mM MgCl2; 5 pmol protein, 0.4 pmol RNA; conditions: protein: recombinant; tags: N-terminal His-tag, removed by 3C protease; chain copies: 2; label: 32P in cap (alpha-32P-GTP); single strand
[2] = target: CASV L-Cterm (California Academy of Sciences virus …, UniProt J7HBG8 1721-2046); assay: EMSA; 5 mM MgCl2; 5 pmol protein, 0.4 pmol RNA; conditions: protein: recombinant; tags: N-terminal His-tag (pOPINF), removed by 3C protease; chain copies: 2; label: 32P in cap (alpha-32P-GTP); single strand

B1: capped polyA 40mer RNA (ssRNA)
RNA: AAAAAAAAAAAAAAAAAAAAAAAAAAAAAAAAAAAAAAAA
modifications: 5' cap added with capping enzymes (Cellscript)
B1: no binding [1]; no binding [2].
